Data reported in patent US20240360224A1 (ORIONIS BIOSCIENCES, published 2024).
Changes are numbered by the printed parent chain. In names and notes the source's numbering stands.

What was measured:
human Clec9A [1] = biological target: T1, human Clec9A (human, UniProt Q6UXN8 1-241); assay: flow cytometry on HEK293-T cells transfected with human Clec9A; His-tagged VHH at 2 µg/ml, anti-His FITC antibody; single concentration
T1 construct: Expressed on transfected CHO-K1, HEK293-T and HL116 cells, or native on human dendritic cells; also called hClec9A; C-type lectin domain family 9 member A
T1 sequence (Q6UXN8 whole entry, the tested form may be a part): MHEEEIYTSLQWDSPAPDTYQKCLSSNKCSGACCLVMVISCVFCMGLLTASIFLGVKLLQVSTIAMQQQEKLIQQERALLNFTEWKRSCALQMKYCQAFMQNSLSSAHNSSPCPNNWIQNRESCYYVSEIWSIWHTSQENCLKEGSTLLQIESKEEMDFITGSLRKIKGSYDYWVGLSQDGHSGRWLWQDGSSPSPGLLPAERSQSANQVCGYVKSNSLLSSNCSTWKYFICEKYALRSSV
Procedure: The binding characteristics of various VHHs (as described in Example 1) were tested by flow cytometry. HEK293-T cells were transfected with a human Clec9A expression plasmid and stained with the His-tagged VHHs at 2 μg/ml, followed by staining with an anti-His Fitc conjugated antibody. Binding was measured by detecting cellular fluorescence via flow cytometry.

human Clec9A [2] = biological target: T1, human Clec9A; assay: flow cytometry, crude periplasmic extracts on CHO-K1 cells stably transfected with human Clec9A
Procedure: A VHH library was constructed from an immunized of a llama. Three consecutive rounds of panning of a VHH library were performed in solution using stably transfected CHO-K cells expressing human Clec9A. The enrichment for antigen-specific phages was assessed after each round of panning by comparing the number of phagemid particles eluted from transfected cells (output) with the number of phagemid particles used for panning (input). The phage output increased about 10-fold in the 2nd round and about 10³-fold in the 3rd round, as compared to the output from the 1st round. The input phage was always about 10¹¹ and the output from first round was about 10⁸ phage particles. 285 randomly selected colonies from the 1st, 2nd and 3rd panning rounds (95 from each round) were sequenced and then grouped based on CDR3 sequences. Using crude periplasmic extracts including VHHs, 95 unique sequences were analyzed by flow cytometry for specificity to human Clec9A using CHO-K1 cells stably transfected with human Clec9A. The parental non-transfected CHO-K1 cells served as negative control cell. An irrelevant VHH was used as negative nanobody control. […] Table B below provides a description of 66 clones representing the 66 different anti-human Clec9A VHH genes. E. coli TG1 harboring recombinant phagemid pMECS containing anti-human Clec9A VHH sequences was generated and stored at […]. […]

[3] = biological target: T2, biotinylated human CLEC9A (human, UniProt Q6UXN8 57-241, limits assumed, biotinylated (site not stated)); assay: BLI (Octet), biotinylated human CLEC9A on streptavidin sensor, VHH at 50, 100 and 200 nM, global analysis
T2 construct: Captured on a streptavidin sensor for BLI
T2 sequence (Q6UXN8 57-241 limits assumed): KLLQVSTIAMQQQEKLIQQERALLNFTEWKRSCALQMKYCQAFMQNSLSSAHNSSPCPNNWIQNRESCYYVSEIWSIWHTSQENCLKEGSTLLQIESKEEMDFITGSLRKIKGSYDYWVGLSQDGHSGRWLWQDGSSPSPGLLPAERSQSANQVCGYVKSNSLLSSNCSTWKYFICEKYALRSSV
Procedure: Affinities of the AFN's for Clec9A were determined using the bio-layer interferometry technology on an Octet system (ForteBio).

B1: 3LEC 82 (VHH)
VHH: QVQLQESGGGLVQAGGSLRLSCAASGRTLSNYAVAWFRQAPGKQRELVAAIWWASGGISYANSAKGRFVLSRDNAKNTVYLQMDSLKPEDTAVYYCAAASSVLSGTADYWGQGTQVTVSS
notes: Entry includes C-terminal AAA-HA-His6 (pMECS)
binding result (human Clec9A [1]): binds

B2: 3LEC 15 (VHH)
VHH: QVQLQESGGGLVQAGGSLRLSCAASGSVFSINAMGWYRQAPEKQRELVAAITTQGRTTYEDSVKGRFTISRDGAQNTVYLQMDSLKPEDTAVYYCKAWTAKDDYWGKGTQVTVSS
notes: as for B1
binding result (human Clec9A [1]): binds

B3: 3LEC 22 (VHH)
VHH: QVQLQESGGGRVQPGGSLRLSCAAIGSIFEINSIGWYRQAPGKQRELVAAITSGGITNYANSVQGRSTISRDNVNNTVYLQMNSLKPEDSAVYYCKGFTGWGKEDYWGQGTQVTVSS
notes: as for B1
binding result (human Clec9A [1]): binds

B4: 3LEC 23 (VHH)
VHH: QVQLQESGGGLVQTGGSLRLSCAASGSIFNINSMGWYRQAPGKQRELVAAITVGGRLAYADSAKGRFTISKESARNTVHLQMSSLKPEDTAVYYCTIWAADYQQYWGQGTQVTVSS
notes: as for B1
binding result (human Clec9A [1]): binds

B5: 3LEC 62 (VHH)
VHH: QVQLQESGGGLVQPGGSLRLSCAASGRIGSINSMGWYRQAPGKQREMVAAITNGGATVYADSVKGRFTISRDNAGNTVDLHMNSLRPEDSAVYYCTIWAADYQQYWGQGTQVTVSS
notes: as for B1
binding result (human Clec9A [1]): binds

B6: 2LEC 24 (VHH)
VHH: QVQLQESGGGLVQAGGSLRLSCAASGRTFSTYAMGWFRQAPGKERGLVAAISWSGGSTYYADSVKGRFTIFRDNAENTVYLQMNSLKPEDTAVYYCAAEAEGSGREGNFYERSWYQGQGTQVTVSS
notes: Entry includes C-terminal AAA-HA-His tag (pMECS); only five His are printed in the text
binding result (human Clec9A [2]): binds

B7: 3LEC 94 (VHH)
VHH: B6 VHH with L11S, T31S, G35A, K43M, G46E, F71S
notes: as for B1
binding result (human Clec9A [1]): binds

B8: 1LEC 61 (VHH)
VHH: QVQLQESGGGLVQPGGSLRLSCAASGGISSINSMGWYRQAPGNQRELVAAITNGGRTVYGDSVKGRFTISRDSAGNTVHLQMDSLRPEDTGVYYCKAFTRGDDYWGQGTQVTVSS
notes: as for B1
binding result (human Clec9A [1]): binds

B9: R1CHCL50 (wild type) (VHH)
VHH: QVQLVESGGGLVHPGGSLRLSCAASGSFSSINVMGWYRQAPGKERELVARITNLGLPNYADSVTGRFTISRDNAKNTVYLQMNSLKPEDTAVYYCYLVALKAEYWGQGTQVTVSS
notes: pHEN6C periplasmic expression with C-terminal his6 tag
Kd [3]: 1.72 nM
koff [3]: 0.000705 s⁻¹
kon [3]: 410000 M⁻¹ s⁻¹

B10: R1CHCL50_opt1 (E1D-A74S-K83R-Q108L) (VHH)
VHH: B9 VHH with Q1D, A74S, K86R, Q110L
notes: The entry already carries the named substitutions; pHEN6C, C-terminal his6 tag
Kd [3]: 1.29 nM
koff [3]: 0.000635 s⁻¹
kon [3]: 492000 M⁻¹ s⁻¹

B11: R1CHCL50_opt2 (E1D-A74S-K83R-Q108L-H13Q) (VHH)
VHH: B9 VHH with Q1D, H13Q, A74S, K86R, Q110L
notes: as for B10
Kd [3]: 1.15 nM
koff [3]: 0.000723 s⁻¹
kon [3]: 630000 M⁻¹ s⁻¹

B12: R1CHCL50_opt3 (E1D-A74S-K83R-Q108L-T64K) (VHH)
VHH: B9 VHH with Q1D, T64K, A74S, K86R, Q110L
notes: as for B10
Kd [3]: 1.79 nM
koff [3]: 0.000998 s⁻¹
kon [3]: 559000 M⁻¹ s⁻¹

B13: R1CHCL50_opt4 (E1D-A74S-K83R-Q108L-H13Q-T64K) (VHH)
VHH: B9 VHH with Q1D, H13Q, T64K, A74S, K86R, Q110L
notes: as for B10
Kd [3]: 2.7 nM
koff [3]: 0.00118 s⁻¹
kon [3]: 438000 M⁻¹ s⁻¹

B14: 3LEC_89 (wild type) (VHH)
VHH: QVQLQESGGGLVQPGGSLRLSCAASGRIFSVNAMGWYRQAPGKQRELVAAITNQGAPTYADSVKGRFTISRDNAGNTVYLQMNSLRPEDTAVYYCKAFTRGDDYWGQGTQVTVSS
notes: pHEN6C periplasmic expression with C-terminal his6 tag, no HA tag
Kd [3]: 1.74 nM
koff [3]: 0.000725 s⁻¹
kon [3]: 416000 M⁻¹ s⁻¹

B15: 3LEC_89_opt1 (E1D-Q5V-Q108L) (VHH)
VHH: B14 VHH with Q1D, Q5V, Q110L
notes: as for B10
Kd [3]: 2.2 nM
koff [3]: 0.000861 s⁻¹
kon [3]: 391000 M⁻¹ s⁻¹

B16: 3LEC_89_opt2 (E1D-Q5V-Q108L-A74S) (VHH)
VHH: B14 VHH with Q1D, Q5V, A74S, Q110L
notes: as for B10
Kd [3]: 2.41 nM
koff [3]: 0.000817 s⁻¹
kon [3]: 338000 M⁻¹ s⁻¹

B17: 3LEC_89_opt3 (E1D-Q5V-Q108L-G75K) (VHH)
VHH: B14 VHH with Q1D, Q5V, G75K, Q110L
notes: as for B10
Kd [3]: 2.56 nM
koff [3]: 0.00112 s⁻¹
kon [3]: 438000 M⁻¹ s⁻¹

B18: 3LEC_89_opt4 (E1D-Q5V-Q108L-A74S-G75K) (VHH)
VHH: B14 VHH with Q1D, Q5V, A74S, G75K, Q110L
notes: as for B10
Kd [3]: 2.35 nM
koff [3]: 0.000982 s⁻¹
kon [3]: 417000 M⁻¹ s⁻¹
